According to PMC3648463, “Common Interactions between S100A4 and S100A9 Defined by a Novel Chemical Probe” (PLoS ONE, 2013):

Experiments:
recombinant human S100A9 = target: T1, recombinant human S100A9 (human, UniProt P06702 1-114); assay: SPR; S100A1, A4, A7, A9 and A13 (~1.3 µg/mL) injected (2 min at 30 µL/min) over immobilised S100A4 and S100A9 (~2.5 kRU); 1 mM Ca++ and 20 µM Zn++; responses at late association phase; details: both partners purified
T1 construct: S100A9, human, recombinant; No oligomer size was measured here; also called S100A9 homodimer; source: produced in E. coli at Active Biotech
T1 sequence (looked up): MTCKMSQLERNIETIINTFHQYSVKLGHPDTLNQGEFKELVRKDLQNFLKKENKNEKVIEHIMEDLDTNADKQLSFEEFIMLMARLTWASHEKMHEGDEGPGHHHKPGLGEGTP

[1] = target: the molecule itself; assay: as above

B1: recombinant human S100A4 (natural protein)
chain: not shown
notes: S100A4, human, recombinant (R&D Systems); No catalogue number, limits or tags are stated; also called S100A4 homodimer; metastasin; source: bought: R&D Systems
binding result (recombinant human S100A9): binds | binding result [1]: binds
